According to patent US20130058939A1:

Biological target: low-density lipoprotein (LDL) receptor-related protein (LRP) on bovine brain capillary endothelial cells of the in vitro BBB model (bovine)
Assay: cell-based or functional assay
Conditions: for alteplase (% of passage versus filter), spectrozyme assay, in vitro BBB model: scale: % of passage versus filter for alteplase alone

DSPA α2 (alpha 2), sequence (P15638 37-477 limits assumed): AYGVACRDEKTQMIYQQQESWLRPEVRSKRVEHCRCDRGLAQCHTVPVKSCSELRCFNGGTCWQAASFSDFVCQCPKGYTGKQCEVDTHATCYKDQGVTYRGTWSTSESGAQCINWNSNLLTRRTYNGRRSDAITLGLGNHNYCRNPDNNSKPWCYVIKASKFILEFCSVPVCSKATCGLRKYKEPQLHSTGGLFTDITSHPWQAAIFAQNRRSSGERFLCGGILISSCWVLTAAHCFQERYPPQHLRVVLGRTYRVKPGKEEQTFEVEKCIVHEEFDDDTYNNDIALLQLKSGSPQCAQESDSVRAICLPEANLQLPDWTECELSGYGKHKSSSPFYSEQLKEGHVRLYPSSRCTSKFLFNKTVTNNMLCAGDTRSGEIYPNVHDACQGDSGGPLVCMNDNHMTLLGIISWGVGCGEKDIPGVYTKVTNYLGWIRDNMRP
clogged Desmoteplase (cDSPA), DSPA alpha 1 inactivated with D-phenyl-prolyl-arginine chloromethyl ketone, sequence (P98119 37-477 limits assumed): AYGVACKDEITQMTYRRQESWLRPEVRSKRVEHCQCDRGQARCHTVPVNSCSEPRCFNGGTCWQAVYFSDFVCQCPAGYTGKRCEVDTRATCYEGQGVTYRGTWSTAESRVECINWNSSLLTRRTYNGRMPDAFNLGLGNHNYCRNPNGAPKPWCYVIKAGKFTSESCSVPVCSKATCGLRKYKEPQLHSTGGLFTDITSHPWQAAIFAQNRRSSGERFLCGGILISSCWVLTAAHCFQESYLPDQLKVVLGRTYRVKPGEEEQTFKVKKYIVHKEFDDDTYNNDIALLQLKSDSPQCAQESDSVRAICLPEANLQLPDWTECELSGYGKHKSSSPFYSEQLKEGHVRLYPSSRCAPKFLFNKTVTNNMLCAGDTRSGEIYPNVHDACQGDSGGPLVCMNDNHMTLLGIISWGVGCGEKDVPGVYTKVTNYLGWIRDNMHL
DSPAα1 (Desmoteplase), sequence (P98119 37-477 limits assumed): as above

% of abluminal alteplase (zymography assay; alteplase alone = 100), in vitro BBB model (% of abluminal alteplase alone) | alteplase (% of passage versus filter), spectrozyme assay, in vitro BBB model | Substance
25.1 | 61.9 | DSPA α2 (alpha 2) (from UniProt P15638 37-477) (enzyme)
73.3 | 76.3 | clogged Desmoteplase (cDSPA), DSPA alpha 1 inactivated with D-phenyl-prolyl-arginine chloromethyl ketone (from UniProt P98119 37-477) (enzyme)
51.6 | – | Reteplase (Rapilysin) (enzyme)
46.6 | 67 | DSPAα1 (Desmoteplase) (from UniProt P98119 37-477) (enzyme)
